Reference: patent publication US8252737B2, “Antimicrobial peptides and methods of use” (priority 2004, dated 2012)
Values after ≈ are worked out from the molar mass of the structure shown. Square brackets hold non-standard residues; d marks the D form. Ends that are not written are not given here.

What was measured:
[1] = Circular dichroism spectroscopy of helical structure (benign buffer and 50% TFE); assay type: physicochemical; conditions: 25° C.; for % helix 50% TFE / % helix Benign: relative to NAL in 50% TFE; for [θ]222 Benign: benign buffer (100 mM KCl, 50 mM PO4 pH 7.0); for [θ]222 50% TFE: benign buffer diluted 1:1 (v/v) with TFE; for % helix Benign: benign buffer
Description: To determine the secondary structure of peptides in different environments, circular dichroism (CD) spectra of the peptide analogs were measured under physiologically related pH and ionic strength (100 mM KCl, 50 mM aq. PO4, pH 7 referred to as benign conditions) and also in 50% TFE to mimic the hydrophobic environment of the membrane. […] On the non-polar face, the native L-Val residue was critical in maintaining α-helical structure. […] Even the substitution with L-Ala, which is known to have the highest α-helical propensity of all 20 amino acids (34), could not stabilize the α-helical structure. […] It is noteworthy that, on the non-polar face, the magnitude of the helical content of L-peptides in benign buffer was related to the hydrophobicity of the substituting amino acids, i.e., NLL>NVL>NAL>NSL, NKL, again showing the importance of hydrophobicity on the non-polar face in maintaining the α-helical structure. […] However, whether L- or D-substitutions were made on the non-polar face, high helical structure could be induced by the hydrophobic environment of 50% TFE, a mimic of the membrane's hydrophobicity and α-helix inducing ability (Table 3).
To determine the secondary structure of the D-enantiomeric peptides in different environments, CD spectra of the peptide analogs were measured under benign conditions (100 mM KCl, 50 mM KH2PO4/K2HPO4, pH 7.4, referred to as KP buffer) and also in 50% trifluoroethanol (TFE) to mimic the hydrophobic environment of the membrane. […] However, in the presence of 50% TFE, all three L-peptides were fully folded α-helical structures with similar ellipticities and helicity (Table 4).
Characterization of Helical Structure—The mean residue molar ellipticities of peptides were determined by circular dichroism (CD) spectroscopy, using a Jasco J-720 spectropolarimeter (Jasco, Easton, Md.), at 25° C. under benign conditions (50 mM KH2PO4/K2HPO4/100 mM KCl, pH 7), as well as in the presence of an α-helix inducing solvent, 2,2,2-trifluoroethanol (TFE) (50 mM KH2PO4/K2HPO4/100 mM KCl, pH 7 buffer/50% TFE). A 10-fold dilution of a ˜500 μM stock solution of the peptide analogs was loaded into a 0.02 cm fused silica cell and its ellipticity scanned from 190 to 250 nm. The values of molar ellipticities of the peptide analogs at a wavelength of 222 nm were used to estimate the relative α-helicity of the peptides.

[2] = RP-HPLC temperature profiling (hydrophobicity and self-association/dimerization parameter PA); assay type: physicochemical; conditions: for tR (min) 5° C.: RP-HPLC retention time at 5° C. during temperature profiling (measure of hydrophobicity); for tR (min) 80° C.: RP-HPLC retention time at 80° C. during temperature profiling; for overall hydrophobicity change relative to PVL: RP-HPLC retention time difference at 80° C.; for overall hydrophobicity change relative to PVL / ΔtR (X-PSL) (min) 5° C. / ΔtR (X-PSL) (min) 80° C.: polar face substitutions; for tR (min) Max: maximal RP-HPLC retention time during temperature profiling 5-80° C.; for PA (min) association parameter: maximal retention time difference relative to control peptide C within 5-80° C.; for ΔtR (X-PSL) (min) 5° C.: retention time difference relative to native peptide V681 (PSL) at 5° C.; for ΔtR (X-PSL) (min) 80° C.: retention time difference relative to native peptide V681 (PSL) at 80° C.
Description: The retention time data for the peptides is shown in Table 5 which records retention times at 5° C., the maximal retention times and retention times at 80° C. during the temperature profiling. Temperatures of 5° C. and 80° C. were the lower and upper temperature limits of temperature profiling in RP-HPLC, representing dimerization of the peptides at 5° C. and the monomerization of peptides at 80° C. due to dissociation of the dimers. The maximal retention times represent the threshold points at which peptides transform from dimeric to monomeric form. Among the non-polar face substituted peptides, peptides with more hydrophobic substitutions (whether L- or D-amino acid substitutions) were more retained during RP-HPLC, i.e., peptides were eluted in the order of Lys, Gly, Ser, Ala, Val and Leu (Table 5). In addition, on the non-polar face, the L-analogs were always more retained than the D-diastereomers (Table 5, FIG. 5). […] In contrast, on the polar face, the elution order of peptides was not correlated with the order of amino acid side-chain hydrophobicity, e.g., PAL and PSL were more retained than PVL (Table 5); PSD was the most retained peptide among the D-amino acid substituted analogs on the polar face (Table 5).
The ability of the D-peptides to self-associate was determined by RP-HPLC temperature profiling. […] As expected, L- and D-peptide enantiomers were totally inseparable over this temperature range, since each pair of peptides is identical in sequence and must adopt identical conformations on interacting with the reversed-phase matrix, whether in an all-L- or all-D-conformation. RP-HPLC retention behavior has been frequently utilized to represent overall peptide hydrophobicity (53, 26). In the present study, the hydrophobicity of the three peptide pairs is in the order V681/D-V681>[…]>NKL/D-NKD (Table 4), which agrees with the change in hydrophobicity of the substitutions at position 13 in order of the most hydrophobic to the least hydrophobic amino acid residue (Val in V681>Ala in NA>Lys in NK) (54). […] For example, the retention times of peptides V681/D-V681 increase with increasing temperature (up to ˜30° C.) followed by a retention time decrease with a further temperature increase. […] Since peptide C is a monomeric random coil peptide in both aqueous and hydrophobic media, its retention behavior over the temperature range 5° C. to 80° C. represents only general temperature effects on peptide retention behavior, i.e., a linear decrease in peptide retention time with increasing temperature due to greater solute diffusivity and enhanced mass transfer between the stationary and mobile phases at higher temperatures (55). Thus, after normalization to the retention times of peptide C, the retention behavior of the peptides represents only peptide self-association ability. Note that the higher the PA value, the greater the self-association ability. […] From Table 4, it is also clear that the peptide retention times at 80° C. are dramatically lower than those at 5° C.
Elution times during RP-HPLC have frequently been utilized as a measure of relative hydrophobicity of peptide analogs (26, 31). In the current study, peptide analogs differed only by a single amino acid substitution on either the non-polar face or the polar face of V681; thus, the retention time data in Table 5 can be considered to reflect the hydrophobicity difference between peptide analogs. In order to more easily visualize the variation in hydrophobicity of the peptide analogs, the retention time data in Table 5 were normalized relative to that of the native peptide V681 at 5° C. and 80° C., respectively. Hydrophobicity relative to the native peptide V681 indicates an increase or decrease of the apparent peptide hydrophobicity with the different amino acid substitutions on the polar or non-polar face. […]

[3] = tested on: Pseudomonas aeruginosa strains
Description: Pseudomonas aeruginosa strains used in this study are a diverse group of clinical isolates from different places in the world. […] The geometric mean MIC values from six Pseudomonas aeruginosa strains were calculated to provide an overall evaluation of antimicrobial activity of these peptides against Pseudomonas aeruginosa. Fold improvement was calculated by comparing the geometric mean MIC value of each peptide to that of the parent peptide V681.
Measurement of Antimicrobial Activity—Minimal inhibitory concentrations (MICs) were determined using a standard microtiter dilution method in LB (Luria-Bertani) no-salt medium (10 g of tryptone and 5 g of yeast extract per liter). Briefly, cells were grown overnight at 37° C. in LB and diluted in the same medium. […] Plates were incubated at 37° C. for 24 hours and MICs determined as the lowest peptide concentration that inhibited growth. Alternatively, minimal inhibitory concentrations were determined using a standard microtiter dilution method in a Mueller-Hinton (MH) medium. Briefly, cells were grown overnight at 37° C. in MH broth and diluted in the same medium. […] Plates were incubated at 37° C. for 24 hours and MICs determined as the lowest peptide concentration that inhibited growth. However, for MIC determination of Pseudomonas aeruginosa clinical isolates, brain heart infusion (BH1) medium was used instead of MH broth. In addition, the bacteria were diluted to a final inoculum of 1×10^6 colony-forming units/ml.
For the Leu-substituted peptides, the hemolytic activity against human erythrocytes was determined as the maximal peptide concentration that produces no hemolysis after 18 hours of incubation at 37° C. Antimicrobial activity of the peptides was determined on a diverse group of Pseudomonas aeruginosa clinical isolates. […] The geometric mean MIC values from six Pseudomonas strains in Table 14 were calculated to provide an overall evaluation of antimicrobial activity of the peptides with different hydrophobicities.

human erythrocytes = experiment: Hemolytic activity (MHC), Protocol B, 18 hours; conditions: maximal peptide concentration showing no hemolysis after 18 hours, hRBC, Table 14
Description: In order to evaluate the biological activities of the D-enantiomeric peptides, namely D-NAL and D-NKD, the hemolytic activity of the peptides against human erythrocytes was determined as the maximal peptide concentration that produces no hemolysis after 18 hours of incubation at 37° C.
Measurement of Hemolytic Activity—Protocol A: Peptide samples were added to 1% human erythrocytes in phosphate buffered saline (0.08M NaCl; 0.043M Na2PO4; 0.011M KH2PO4) and reactions were incubated at 37° C. for 12 hours in microtiter plates. Peptide samples were diluted 2 fold in order to determine the concentration that produced no hemolysis. […] Hemoglobin release was determined spectrophotometrically at 562 nm. The hemolytic titer was the highest 2-fold dilution of the peptide that still caused release of hemoglobin from erythrocytes. The control for no release of hemoglobin was a sample of 1% erythrocytes without any peptide added. […] Peptide samples were diluted 2 fold in order to determine the concentration that produced no hemolysis. […] Hemoglobin release was determined spectrophotometrically at 570 nm. The hemolytic titer was the highest 2-fold dilution of the peptide that still caused release of hemoglobin from erythrocytes. The control for no release of hemoglobin was a sample of 1% erythrocytes without any peptide added.

Row | Molecule | % helix 50% TFE [1] | [θ]222 Benign [1] | [θ]222 50% TFE [1] | % helix Benign [1] | tR (min) 5° C. [2] | tR (min) 80° C. [2] | overall hydrophobicity change relative to PVL [2] | tR (min) Max [2] | PA (min) association parameter [2] | ΔtR (X-PSL) (min) 5° C. ([2]; relative hydrophobicity) | ΔtR (X-PSL) (min) 80° C. ([2]; relative hydrophobicity) | also measured
1 | PAL: V681 analog with L-Ala at position 11 (polar face) (KWKSFLKTFKAAVKTVLHTALKAISS) | 95% | −13,600 deg · cm^2 · dmol^−1 | −27,600 deg · cm^2 · dmol^−1 | 47% | 48.25 min | 46.63 min | +0.45 min | 50.57 min | 4.15 min | 0.15 min | 0.80 min | –
2 | CC[C@H](C)[C@H](NC(=O)[C@H](C)NC(=O)[C@H](CCCCN)NC(=O)[C@H](CC(C)C)NC(=O)[C@H](C)NC(=O)[C@@H](NC(=O)[C@H](Cc1c[nH]cn1)NC(=O)[C@H](CC(C)C)NC(=O)[C@@H](NC(=O)[C@@H](NC(=O)[C@H](CCCCN)NC(=O)[C@H](CCCCN)NC(=O)[C@H](CC(C)C)NC(=O)[C@H](CO)NC(=O)[C@H](CCCCN)NC(=O)[C@H](Cc1ccccc1)NC(=O)[C@@H](NC(=O)[C@H](CCCCN)NC(=O)[C@H](CC(C)C)NC(=O)[C@H](Cc1ccccc1)NC(=O)[C@H](CO)NC(=O)[C@H](CCCCN)NC(=O)[C@H](Cc1c[nH]c2ccccc12)NC(=O)[C@H](CCCCN)NC(C)=O)[C@@H](C)O)[C@@H](C)O)C(C)C)[C@@H](C)O)C(=O)N[C@@H](CO)C(=O)N[C@@H](CO)C(N)=O [Peptide A12L] | – | – | – | – | – | – | – | – | – | – | – | MIC (μg/ml) CP 204 ([3]; Pseudomonas aeruginosa clinical isolate CP 204): 15.6 µg/mL (≈ 5.14 µM); MIC (μg/ml) M 2 ([3]; Pseudomonas aeruginosa clinical isolate M 2): 15.6 µg/mL (≈ 5.14 µM); MIC (μg/ml) PA 14 ([3]; Pseudomonas aeruginosa clinical isolate PA 14): 31.3 µg/mL (≈ 10.3 µM); MIC (μg/ml) PAK ([3]; Pseudomonas aeruginosa clinical isolate PAK): 31.3 µg/mL (≈ 10.3 µM); MIC (μg/ml) PAO 1 ([3]; Pseudomonas aeruginosa clinical isolate PAO 1): 15.6 µg/mL (≈ 5.14 µM); MIC (μg/ml) WR 5 ([3]; Pseudomonas aeruginosa clinical isolate WR 5): 62.5 µg/mL (≈ 20.6 µM); MIC (μg/ml) GM ([3]; geometric mean of the MIC values for the 6 Pseudomonas aeruginosa clinical isolates): 24.8 µg/mL (≈ 8.18 µM); Hemolytic activity MHC (human erythrocytes): 31.3 µg/mL
3 | PLL: V681 analog with L-Leu at position 11 (polar face) (KWKSFLKTFKLAVKTVLHTALKAISS) | 99% | −10,850 deg · cm^2 · dmol^−1 | −28,550 deg · cm^2 · dmol^−1 | 37% | 48.78 min | 47.51 min | – | 51.23 min | 4.33 min | 0.68 min | 1.68 min | –
4 | NLD: V681 analog with D-Leu at position 13 (non-polar face) (KWKSFLKTFKSA[dL]KTVLHTALKAISS-NH2; not fully specified) | 89% | −7,350 deg · cm^2 · dmol^−1 | −25,750 deg · cm^2 · dmol^−1 | 25% | 45.10 min | 43.03 min | – | 46.37 min | 3.02 min | – | – | ΔtR (X-NVL) (min) 5° C. ([2]; non-polar face substitutions, retention time difference relative to native peptide V681 (NVL) at 5° C., relative hydrophobicity): -3.00 min; ΔtR (X-NVL) (min) 80° C. ([2]; non-polar face substitutions, retention time difference relative to native peptide V681 (NVL) at 80° C., relative hydrophobicity): -2.80 min
5 | PKL: V681 analog with L-Lys at position 11 (polar face) (KWKSFLKTFKKAVKTVLHTALKAISS) | 94% | −5,950 deg · cm^2 · dmol^−1 | −27,350 deg · cm^2 · dmol^−1 | 21% | 46.38 min | 43.89 min | -2.29 min | 47.90 min | 3.17 min | -1.72 min | -1.94 min | –
